The data set deals with CNBP full-length. The data set is described as follows: MST. The following applies: MST Buffer (composition, salt and pH not given); RED-Tris-NTA labeling 30 min at room temperature; RNA in 16 two-fold dilutions; 60% LED, high MST power ….

Take SARS-CoV-2 genome RNA: the Kd came out at 29.7 µg/mL.

A word on the Kd: it is the equilibrium constant for the complex coming apart.
